Changes are numbered by the printed parent chain. Names may count otherwise.
B1: A26.8 VHH Q101K (VHH)
VHH: QVKLEESGGGLVQAGGSLRLSCAASERTFSRYPVAWFRQAPGAEREFVAVISSTGTSTYYADSVKGRFTISRDNAKVTVYLQMNNLKREDTAVYFCAVNSKRTRLQDPNEYDYWGQGTQVTVSS
notes: source: E. coli TG1, periplasmic extract, purified (IMAC, SEC)
B2: A26.8 VHH T56R, Q101K, T103K (VHH)
VHH: B1 VHH with T56R, T103K
notes: as for B1
B3: A26.8 VHH Q101K, T103M (VHH)
VHH: B1 VHH with T103M
notes: as for B1
B4: A26.8 VHH D107N (VHH)
VHH: B1 VHH with K101Q, D107N
notes: as for B1
B5: A26.8 VHH N109R (VHH)
VHH: B1 VHH with K101Q, N109R
notes: as for B1
B6: A26.8 VHH S53R (VHH)
VHH: B1 VHH with S53R, K101Q
notes: as for B1
B7: A26.8 VHH T56R, T103M (VHH)
VHH: B1 VHH with T56R, K101Q, T103M
notes: as for B1
B8: A26.8 VHH T103K (VHH)
VHH: B1 VHH with K101Q, T103K
notes: as for B1
B9: A26.8 VHH Q106F (VHH)
VHH: B1 VHH with K101Q, Q106F
notes: as for B1
B10: A26.8 VHH D107Y (VHH)
VHH: B1 VHH with K101Q, D107Y
notes: as for B1
B11: A26.8 VHH T103W (VHH)
VHH: B1 VHH with K101Q, T103W
notes: as for B1
B12: A26.8 VHH Q106W (VHH)
VHH: B1 VHH with K101Q, Q106W
notes: as for B1
B13: A26.8 VHH T56R, Q101K (VHH)
VHH: B1 VHH with T56R
notes: as for B1
B14: A26.8 VHH R104W (VHH)
VHH: B1 VHH with K101Q, R104W
notes: as for B1
B15: A26.8 VHH T58K (VHH)
VHH: B1 VHH with T58K, K101Q
notes: as for B1
B16: A26.8 VHH T56R, Q101K, T103R (VHH)
VHH: B1 VHH with T56R, T103R
notes: also called lead triple mutant; source: E. coli TG1, periplasmic extract, purified (IMAC, SEC)
B17: A26.8 VHH T103M (VHH)
VHH: B1 VHH with K101Q, T103M
notes: as for B1
B18: A26.8 VHH Q101K, T103K (VHH)
VHH: B1 VHH with T103K
notes: as for B1
B19: A26.8 VHH T56R, Q101K, T103M (VHH)
VHH: B1 VHH with T56R, T103M
notes: as for B1
B20: A26.8 VHH Q101K, T103R (VHH)
VHH: B1 VHH with T103R
notes: as for B1
B21: A26.8 VHH T56R, T103K (VHH)
VHH: B1 VHH with T56R, K101Q, T103K
notes: as for B1
B22: A26.8 VHH T54W (VHH)
VHH: B1 VHH with T54W, K101Q
notes: as for B1
B23: A26.8 VHH Q106Y (VHH)
VHH: B1 VHH with K101Q, Q106Y
notes: as for B1
B24: A26.8 VHH E110Q (VHH)
VHH: B1 VHH with K101Q, E110Q
notes: as for B1
B25: A26.8 VHH T56R, T103R (VHH)
VHH: B1 VHH with T56R, K101Q, T103R
notes: also called lead double mutant; source: E. coli TG1, periplasmic extract, purified (IMAC, SEC)
B26: A26.8 VHH T56R (VHH)
VHH: B1 VHH with T56R, K101Q
notes: as for B1
B27: A26.8 VHH Q106L (VHH)
VHH: B1 VHH with K101Q, Q106L
notes: as for B1
B28: A26.8 VHH T103R (VHH)
VHH: B1 VHH with K101Q, T103R
notes: as for B1
B29: A26.8 VHH T54R (VHH)
VHH: B1 VHH with T54R, K101Q
notes: as for B1
B30: A26.8 VHH T56I (VHH)
VHH: B1 VHH with T56I, K101Q
notes: as for B1
B31: A26.8 VHH D107R (VHH)
VHH: B1 VHH with K101Q, D107R
notes: as for B1
B32: A26.8 VHH T54Y (VHH)
VHH: B1 VHH with T54Y, K101Q
notes: as for B1

target: T1, Clostridium difficile toxin A (Clostridioides difficile …, UniProt P16154); experiment: SPR; conditions: both partners purified
T1 construct: also called TcdA

In order of rising Kd:
1. B16  2 nM
2. B25  2.3 nM
3. B19  2.9 nM
4. B2  3.2 nM
5. B21  3.4 nM
6. B13  4.1 nM
7. B20  4.2 nM
8. B7  4.8 nM
9. B28  5.3 nM
10. B26  6.2 nM
11. B1  7.6 nM
12. B3  8 nM
13. B18  8.2 nM
14. B8  8.3 nM
15. B29  13.2 nM
16. B15  13.5 nM
17. B30  13.6 nM
18. B17  13.7 nM
19. B5  13.9 nM
20. B11  16.3 nM
21. B31  19 nM
22. B4  21.3 nM
23. B24  33.6 nM
24. B22  35 nM
25. B32  38.9 nM
26. B10  44 nM
27. B14  165 nM
28. B6  224 nM
29. B27  612 nM
30. B12  1480 nM
31. B23  2320 nM
32. B9  5130 nM

In order of falling koff:
1. B10  0.071 s⁻¹
2. B24  0.07 s⁻¹
3. B32  0.069 s⁻¹
4. B22  0.056 s⁻¹
5. B14  0.055 s⁻¹
6. B13  0.05 s⁻¹
7. B2  0.047 s⁻¹
8. B29  0.044 s⁻¹
9. B4  0.04 s⁻¹
10. B18  0.04 s⁻¹
11. B11  0.036 s⁻¹
12. B15  0.033 s⁻¹
13. B7  0.03 s⁻¹
14. B19  0.03 s⁻¹
15. B21  0.029 s⁻¹
16. B3  0.027 s⁻¹
17. B5  0.027 s⁻¹
18. B26  0.027 s⁻¹
19. B30  0.026 s⁻¹
20. B31  0.026 s⁻¹
21. B16  0.024 s⁻¹
22. B17  0.024 s⁻¹
23. B20  0.023 s⁻¹
24. B1  0.02 s⁻¹
25. B8  0.02 s⁻¹
26. B25  0.019 s⁻¹
27. B28  0.014 s⁻¹

In order of falling kon:
1. B2  1.47e+07 M⁻¹ s⁻¹
2. B13  1.24e+07 M⁻¹ s⁻¹
3. B16  1.23e+07 M⁻¹ s⁻¹
4. B19  1.04e+07 M⁻¹ s⁻¹
5. B21  8.6e+06 M⁻¹ s⁻¹
6. B25  8.3e+06 M⁻¹ s⁻¹
7. B7  6.4e+06 M⁻¹ s⁻¹
8. B20  5.5e+06 M⁻¹ s⁻¹
9. B18  5e+06 M⁻¹ s⁻¹
10. B26  4.8e+06 M⁻¹ s⁻¹
11. B29  3.6e+06 M⁻¹ s⁻¹
12. B3  3.3e+06 M⁻¹ s⁻¹
13. B1  2.7e+06 M⁻¹ s⁻¹
14. B28  2.7e+06 M⁻¹ s⁻¹
15. B8  2.5e+06 M⁻¹ s⁻¹
16. B15  2.5e+06 M⁻¹ s⁻¹
17. B11  2.4e+06 M⁻¹ s⁻¹
18. B24  2.1e+06 M⁻¹ s⁻¹
19. B5  2e+06 M⁻¹ s⁻¹
20. B4  1.9e+06 M⁻¹ s⁻¹
21. B30  1.9e+06 M⁻¹ s⁻¹
22. B17  1.8e+06 M⁻¹ s⁻¹
23. B32  1.8e+06 M⁻¹ s⁻¹
24. B10  1.6e+06 M⁻¹ s⁻¹
25. B22  1.6e+06 M⁻¹ s⁻¹
26. B31  1.4e+06 M⁻¹ s⁻¹
27. B14  300000 M⁻¹ s⁻¹

From article PMC5797146 (Scientific Reports, 2018)
